Patent publication US20140148503, “NUCLEIC ACID APTAMERS” (University of Iowa Research Foundation, published 2014)

What was measured:
[1] = target: T1, BSA (bovine serum albumin) (UniProt P02769 P02769:25-607); test: SPR; no appreciable interaction; specificity control; conditions: label: 5'-biotin-spacer9-G
Description: (§1) Surface Plasmon Resonance (SPR) measurements were carried out using a BIACore 3000 device. 5′-biotinylated RNA was generated by transcription and gel purification as described above, except the transcription reactions were carried out in the presence of 3 mM biotin-G (Custom order from TriLink Biotechnologies, San Diego, Calif.: 5′-(Biotin) (Spacer 9) G-3′). The biotinylated RNA was immobilized on a streptavidin-coated Biacore chip (Sensor Chip SA, 13R-1003-98, General Electric Company) by injection in binding buffer at a concentration of 25 μg/mL (20 mM HEPES, pH 7.4, 150 mM NaCl, 2 mM CaCl₂). The RNA was refolded by heating to 65° C. followed by cooling to 37° C. prior to immobilization. To measure binding kinetics, fixed concentrations of purified protein were injected over the chip using the “KINJECT” function at a flow rate of 15 μL/min. After binding, the chip was regenerated by injecting 50 mM NaOH with the “QUICKINJECT” function. […]
(§2) Binding specificity of the A9g aptamer for PSMA was determined using SPR/BIACore (FIG. 4D; left panel). Binding specificity was assessed by comparing the kₒₙ, and koff rates of A9g for recombinant PSMA protein (target) to the Kₒₙ, and koff rates of A9g for non-target proteins (BSA and HER2). […] No appreciable interaction between A9g and the non-target proteins (BSA and HER2) was measured (FIG. 4D; left panel). […]

[2] = target: T2, PSMA (prostate specific membrane antigen) (Homo sapiens, UniProt Q04609 Q04609:44-750); test: SPR; 1:1 with mass transfer; range 5-30 nM in triplicate; 20 mM HEPES pH 7.4, 150 mM NaCl, 2 mM CaCl2; conditions: tags: R&D Systems 4234-ZN-010; chain copies: 2; label: 5'-biotin-spacer9-G
T2 sequence (Q04609 44-750, one chain of several): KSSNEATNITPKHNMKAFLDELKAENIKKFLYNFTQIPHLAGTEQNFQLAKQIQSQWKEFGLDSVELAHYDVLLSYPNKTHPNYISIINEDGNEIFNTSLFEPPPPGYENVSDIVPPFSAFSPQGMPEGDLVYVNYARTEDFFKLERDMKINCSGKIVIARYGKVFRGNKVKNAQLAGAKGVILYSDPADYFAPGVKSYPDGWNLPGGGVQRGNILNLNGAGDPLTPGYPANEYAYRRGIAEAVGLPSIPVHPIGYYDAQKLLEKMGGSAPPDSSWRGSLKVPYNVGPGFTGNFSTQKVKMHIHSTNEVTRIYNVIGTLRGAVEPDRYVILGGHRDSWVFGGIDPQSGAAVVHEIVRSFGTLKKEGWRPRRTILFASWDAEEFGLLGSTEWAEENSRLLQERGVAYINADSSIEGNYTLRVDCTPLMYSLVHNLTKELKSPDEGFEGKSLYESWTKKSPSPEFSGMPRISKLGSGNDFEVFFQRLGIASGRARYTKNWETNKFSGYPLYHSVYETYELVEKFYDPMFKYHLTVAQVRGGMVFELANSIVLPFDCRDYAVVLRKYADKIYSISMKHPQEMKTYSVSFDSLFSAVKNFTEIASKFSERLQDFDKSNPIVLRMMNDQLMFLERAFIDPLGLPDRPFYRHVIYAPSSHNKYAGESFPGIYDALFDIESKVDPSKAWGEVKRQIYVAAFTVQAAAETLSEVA
Description: The data were fit to a 1:1 binding with mass transfer model. […] The on-rate (kₐ) was 1.15×10⁴ M⁻¹·S⁻¹ and the off-rate (kd) was 5.7×10⁻⁵ s⁻¹.
Surface Plasmon Resonance (SPR) measurements were carried out using a BIACore 3000 device. 5′-biotinylated RNA was generated by transcription and gel purification as described above, except the transcription reactions were carried out in the presence of 3 mM biotin-G (Custom order from TriLink Biotechnologies, San Diego, Calif.: 5′-(Biotin) (Spacer 9) G-3′). The biotinylated RNA was immobilized on a streptavidin-coated Biacore chip (Sensor Chip SA, 13R-1003-98, General Electric Company) by injection in binding buffer at a concentration of 25 μg/mL (20 mM HEPES, pH 7.4, 150 mM NaCl, 2 mM CaCl₂). The RNA was refolded by heating to 65° C. followed by cooling to 37° C. prior to immobilization. […]
The NAALADase activity assay provides an indirect measurement of the interaction of the PSMA aptamers with PSMA. […] As determined by the filter binding assay, the A9g aptamer retains the same binding profile as the full-length A9 (FIG. 3A). […] After the injection was halted, the rate of dissociation (koff) was measured. By repeating these measurements at various analyte (PSMA) concentrations, an accurate estimation of binding was determined (KD=koff/Kₒₙ).

[3] = target: T2, PSMA (prostate specific membrane …); test: inhibition; NAALADase; 1 mM CoCl2, 37 C; conditions: tags: R&D Systems 4234-ZN-010; chain copies: 2
Description: Refolding was accomplished by heating at 65° C. for 10 minutes, followed by cooling to 37° C. for 10 minutes. A volume of 120 μL of refolded RNA in binding buffer was added to an Eppendorf tube, was combined with 40 μL of 200 mM Tris buffer, pH 7.5, and 20 μL 10 mM CoCl₂ (final concentrations in the reaction 40 mM and 1 mM, respectively). Cobalt (II) chloride was reported to be a “stimulator of enzymatic activity” in the original NAALADase assay protocol (Xiao, Z., et al., (2000) Generation of a baculovirus recombinant prostate-specific membrane antigen and its use in the development of a novel protein biochip quantitative immunoassay. Protein Expr Purif, 19, 12-21). When this compound was omitted from the reaction, we observed increased non-specific RNA interactions. Two micrograms in 2 μL of recombinant human PSMA (4234-ZN-010) from R&D Systems (Minneapolis, Minn.) was diluted in 500 μL of 50 mM pH 7.5 Tris buffer. Ten microliters of the PSMA solution (40 ng PSMA) was added to the reaction mix, and the reaction was incubated for 5 minutes at 37° C. to promote RNA-PSMA interaction. For the experiment shown in FIG. 1A, recombinant, purified human PSMA was obtained courtesy of Dr. David Spencer (Baylor College of Medicine, Houston, Tex.). […]
AG 1-X8 formate resin (200-400 mesh) columns from Bio-Rad (731-6221) were used to quantitate the [³H]-glutamate reaction product. […]

[4] = target: T2, PSMA (prostate specific membrane …); test: inhibition; NAALADase of membrane extract; conditions: protein: extract; tags: membrane extract of PC-3 (PSMA+) cells stably expressing human PSMA; chain copies: 2
[5] = target: T2, PSMA (prostate specific membrane …); test: cell_activity; transwell migration; conditions: tags: PSMA-expressing cells, migration and invasion assays; chain copies: 2
[6] = target: T2, PSMA (prostate specific membrane …); test: filter; 37 C; conditions: tags: R&D Systems 4234-ZN-010; chain copies: 2
Text: FIGS. 3A-3B. Binding of A9 and A9g to human PSMA. (A) A saturation filter binding assay was used to measure binding of A9 and A9g to recombinant human PSMA protein. […] The fraction bound was normalized to the Bₘₐₓ (maximal binding capacity) of A9. (B) Measurement of the binding affinity of A9g for recombinant human PSMA protein by surface plasmon resonance (SPR, BIACore). The data were fit to a 1:1 binding with mass transfer model. […] The on-rate (kₐ) was 1.15×10⁴ M⁻¹·S⁻¹ and the off-rate (kd) was 5.7×10⁻⁵ s⁻¹.
Filter binding assays were performed as previously described (Wong, I. and Lohman, T. M. (1993) A double-filter method for nitrocellulose-filter binding: application to protein-nucleic acid interactions. Prac Natl Acad Sci USA, 90, 5428-5432). Briefly, aptamers were 5′-end labeled with ³²P using PNK. RNA was incubated for 5 minutes with various concentrations of purified, recombinant human PSMA (4234-ZN-010) obtained from R&D Systems at 37° C. The reaction mixture was spotted onto a sandwich of nitrocellulose (Protran BA 83, 0.2 μm pore size, 10 402 488, Whatman), nylon (Zeta-Probe Blotting Membranes, 162-0153, Bio-Rad), and Whatman 3MM chromatography paper (3130-6189) assembled in a dot-blot apparatus. […] The ratio of bound:unbound RNA was calculated by exposing the filters to a storage phosphor screen and imaging with a phosphorimager.

[7] = target: T2, PSMA (prostate specific membrane …); test: SPR; lack of binding; conditions: tags: R&D Systems 4234-ZN-010; chain copies: 2; label: 5'-biotin-spacer9-G
Description: as §1, §2

[8] = target: T1, BSA (bovine serum albumin); test: SPR; no measurable binding; conditions: label: 5'-biotin-spacer9-G
Description: as §1, §2

[9] = target: T2, PSMA (prostate specific membrane …); test: 32P-labeled RNA on cells, on ice; conditions: tags: 22Rv1 (1.7) prostate cancer cells; chain copies: 2
Description: One day prior to the binding assay, cells were plated in a 24-well plate at a density of approximately 100,000 cells per well. All subsequent procedures were performed on ice to prevent aptamer internalization. Prior to binding, each well was washed twice with 1 ml of ice-cold Dulbecco's phosphate-buffered saline in the absence of divalent cations (DPBS −/−) to remove growth media. Aptamers were 5′ end-labeled with ³²P using PNK from New England Biolabs as previously described (McNamara, J. O., et al., (2008) Multivalent 4-1BB binding aptamers costimulate CD8+ T cells and inhibit tumor growth in mice. J Clin Invest, 118, 376-386). The concentration of ³²P-radiolabeled aptamer was measured with UV-visible absorption spectroscopy, and serial dilutions ranging from 1000 nM to 30 nM were performed. To measure non-specific binding, serial dilutions were also made containing a high fixed concentration of non-radiolabeled A9g aptamer, at 10 μM. […] Bound RNA was collected by washing with 0.5 ml of 0.5 N NaOH which was added to 3 ml of scintillation fluid, and activity was measured. For each dilution, specific binding was calculated by subtracting the activity of the sample with a high concentration of non-radiolabeled (“cold”) aptamer added (i.e., non-specific binding) from the sample without cold aptamer added (i.e., total binding). […]

[10] = target: T2, PSMA (prostate specific membrane …); test: cell_activity; transwell migration; invasion IC50 75 nM (FIG. 15C); conditions: tags: PSMA-expressing cells, migration and invasion assays; chain copies: 2
[11] = target: T2, PSMA (prostate specific membrane …); test: filter; Bmax severely diminished; conditions: tags: R&D Systems 4234-ZN-010; chain copies: 2
Text: FIGS. 4A-4D. Characterization of A9g binding to PSMA. (A) Secondary structural predictions of truncated A9 aptamers generated using the RNAStructure 4.6 algorithm. Base changes are denoted by an asterisk (*). Base changes were introduced in an attempt to either retain the predicted secondary structure (A9g.1 and A9g.2) or disrupt various secondary structural elements (A9g.3-A9g.6) of A9g. Two secondary structure predictions were given for the A9g.4 sequence, denoted by A9g.4a and A9g.4b. (B) Effect of A9g aptamer derivatives (A9g.1 through A9g.6) on PSMA NAALADase inhibitor activity. NAALADase activity was measured and normalized as in FIG. 1. (C) Saturation filter binding assay of A9g aptamer and A9g aptamer derivatives (A9g.3-A9g.6). (D) Binding of A9g to recombinant human PSMA, recombinant rat HER2 (rHER2), and BSA using BIACore (left panel). Binding of A9g.6 to recombinant human PSMA, recombinant rat HER2 (rHER2), and BSA using BIACore (right panel).
Filter binding assays were performed as previously described (Wong, I. and Lohman, T. M. (1993) A double-filter method for nitrocellulose-filter binding: application to protein-nucleic acid interactions. Prac Natl Acad Sci USA, 90, 5428-5432). Briefly, aptamers were 5′-end labeled with ³²P using PNK. RNA was incubated for 5 minutes with various concentrations of purified, recombinant human PSMA (4234-ZN-010) obtained from R&D Systems at 37° C. The reaction mixture was spotted onto a sandwich of nitrocellulose (Protran BA 83, 0.2 μm pore size, 10 402 488, Whatman), nylon (Zeta-Probe Blotting Membranes, 162-0153, Bio-Rad), and Whatman 3MM chromatography paper (3130-6189) assembled in a dot-blot apparatus. Bound RNA was captured on the nitrocellulose filter, while unbound RNA was captured on the nylon filter. The ratio of bound:unbound RNA was calculated by exposing the filters to a storage phosphor screen and imaging with a phosphorimager.

T1 sequence (P02769 25-607, one chain of several): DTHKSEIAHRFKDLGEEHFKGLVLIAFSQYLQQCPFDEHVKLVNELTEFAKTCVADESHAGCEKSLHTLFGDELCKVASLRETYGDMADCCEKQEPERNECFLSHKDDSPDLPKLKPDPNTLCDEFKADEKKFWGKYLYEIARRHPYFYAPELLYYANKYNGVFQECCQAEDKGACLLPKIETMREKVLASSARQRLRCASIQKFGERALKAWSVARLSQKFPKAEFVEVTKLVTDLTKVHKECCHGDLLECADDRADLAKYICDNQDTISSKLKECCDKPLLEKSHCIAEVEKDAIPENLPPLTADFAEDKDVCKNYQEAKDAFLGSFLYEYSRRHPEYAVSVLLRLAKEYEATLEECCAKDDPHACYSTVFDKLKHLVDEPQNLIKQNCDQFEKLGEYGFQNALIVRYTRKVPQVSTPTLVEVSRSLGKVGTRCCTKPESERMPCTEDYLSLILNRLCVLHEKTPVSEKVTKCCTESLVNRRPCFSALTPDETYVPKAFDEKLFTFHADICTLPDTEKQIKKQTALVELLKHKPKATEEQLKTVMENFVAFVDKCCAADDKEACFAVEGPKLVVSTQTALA

## GGGACCGAAAAAGACCUGACUUCUAUACUAAGUCUACGUUCCC (ssRNA, 2'-F pyrimidines) [A9g 5'-biotin]
[1]
  binding result: no binding
[2]
  Kd: 5 nM

B1: A9 (ssRNA)
RNA: GGGAGGACGAUGCGGACCGAAAAAGACCUGACUUCUAUACUAAGUCUACGUUCCCAGACGACUCGCCCGA
modifications: 2'-F pyrimidines
[3]
  IC50: ~10 nM
[4]
  IC50: 267 nM
[5]
  IC50: 81 nM
[6]
  Kd: 110 nM

## GGGACCGAAAAAGACCUGGCUUCUAUACUAAGUCUACGUUCCC (ssRNA, 2'-F pyrimidines) [A9g.6 5'-biotin]
[7]
  binding result: no binding
[8]
  binding result: no binding

## GGGACCGAAAAAGACCUGACUUCUAUACUAAGUCUACGUUCCC (ssRNA, 2'-F pyrimidines) [A9g]
[3]
  IC50: ~10 nM
[9]
  binding signal: ~2 fold binding capacity vs PSMA-negative PC-3
[4]
  IC50: 290 nM
[10]
  IC50: 18 nM
[6]
  Kd: 130 nM

## GGGACCGAAAAAGACCUGACUUCUAUACUAAGUCUACGGUCCC (ssRNA, 2'-F pyrimidines) [A9g.3 (U39G)]
[11]
  binding result: no binding

## GGGACCGAAAAAGACCUGACUUCUAUACUAGGUCUACGUUCCC (ssRNA, 2'-F pyrimidines) [A9g.5]
[11]
  binding result: no binding

## GGGACCGAAAAAGACCUGGCUUCUAUACUAAGUCUACGUUCCC (ssRNA, 2'-F pyrimidines) [A9g.6]
[11]
  binding result: no binding
